Reference: patent publication US20190241654A1 (published 2019)
Where “and” joins values, the source holds several entries; their conditions need not be identical. Identical values can stand only once.

Experiments:
CD47 on CCRF-CEM cells [1] = molecular target: T1, CD47 on CCRF-CEM cells (human, UniProt Q08722 19-323); experiment: flow cytometry on antibody-opsonized CCRF-CEM cells, anti-human Alexa 647 secondary, median fluorescence, sigmoidal fit; Donor 1
T1 construct: Target is CD47 carried by the CD47-positive cell line CCRF-CEM; also called Cluster of Differentiation 47; integrin-associated protein
Experimental: (§1) Phagocytosis was assayed by serum starving the macrophages in incomplete AIM V media for two hours. During this incubation period, target cells (CCRF-CEM) from two donors (donor 1 and donor 2) were labeled with CSFE (Invitrogen, #C34554) at […] for 15 minutes at room temperature. Cells were rinsed twice with PBS (Hyclone, #SH30028.02) and resuspended at 8×10⁵/mL in AIM V media. Antibody dilutions were prepared at 0.01 ug/ml to 10 ug/ml in half log dilutions and then incubated with the target cell line for 10 minutes at room temperature (a small portion is retained for flow cytometric analysis/cell binding), after which 100 μL of target cell/antibody suspension was added to the macrophage plates. Samples were treated in triplicate and with appropriate isotype controls.
(§2) Samples were incubated for 30 minutes at room temperature, rinsed 2× and then resuspended in FACS buffer and analyzed on the Attune. The EC50 values refer to the concentration that gives half the maximum binding measured as median fluorescent intensity, and was determined by non-linear fit of a sigmoidal dose response within the GraphPad Prism software.

CD47 on CCRF-CEM cells [2] = molecular target: T1, CD47 on CCRF-CEM cells; experiment: flow cytometry on antibody-opsonized CCRF-CEM cells, anti-human Alexa 647 secondary, median fluorescence, sigmoidal fit
Experimental: as §1, §2

CD47 on CCRF-CEM cells [3] = molecular target: T1, CD47 on CCRF-CEM cells; experiment: flow cytometry on antibody-opsonized CCRF-CEM cells, anti-human Alexa 647 secondary, median fluorescence, sigmoidal fit; Donor 2
Experimental: as §1, §2

CD47 on CCRF-CEM cells [4] = molecular target: T1, CD47 on CCRF-CEM cells; experiment: cell-based or functional assay

T1 sequence (Q08722 19-323): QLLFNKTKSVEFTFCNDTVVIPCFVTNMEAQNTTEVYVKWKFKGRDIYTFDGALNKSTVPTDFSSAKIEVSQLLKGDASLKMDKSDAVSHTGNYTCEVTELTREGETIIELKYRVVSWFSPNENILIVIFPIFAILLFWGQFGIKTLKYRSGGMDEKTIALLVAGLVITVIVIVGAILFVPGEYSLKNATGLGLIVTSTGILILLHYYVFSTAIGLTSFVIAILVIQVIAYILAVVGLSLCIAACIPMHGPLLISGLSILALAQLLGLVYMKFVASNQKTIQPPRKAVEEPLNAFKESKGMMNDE

Binder	EC50 (CD47 on CCRF-CEM cells [1]) [mg/L]	EC50 (CD47 on CCRF-CEM cells [2])	EC50 (CD47 on CCRF-CEM cells [3]) [mg/L]	Phagocytosis EC50 (ug/mL), Donor 1 (CD47 on CCRF-CEM cells [4])	Phagocytosis EC50 (ug/mL), Donor 2 (CD47 on CCRF-CEM cells [4])
Ab1119/Ab480 (LC Ab1119, HC Ab480) anti-CD47 antibody (antibody, V domains shown, Variant of AbParental) VH: QMQLVQSGAEVKKPGSSVKVSCKASGFNIKDYYLHWVRQAPGKGLEWMGWIDPDQGDTEYAQKFQGRVTITRDRSTSTAYMELRSLRAEDTAVYYCNAAYGSSSYPMDYWGQGTLVTVSS VL: NIQMTQSPSSLSASVGDRVTITCRASQDIHRYLSWFQQKPGKVPKHLIYRANRLVSGVPSRFSGSGSGTEFTLTISSLQPEDFATYYCLQYDEFPYTFGGGTKVEIK	0.04	0.012 mg/L	0.07	0.44 µg/mL and 0.19 µg/mL	0.71 µg/mL and 0.24 µg/mL
AbParental, parental anti-CD47 antibody (antibody, human IgG4 S228P, kappa, V domains shown, Parental anti-CD47 antibody, described in WO 2013/119714 A1; also called Parental LC-HC; parental antibody) VH: QMQLVQSGAEVKKTGSSVKVSCKASGFNIKDYYLHWVRQAPGQALEWMGWIDPDQGDTEYAQKFQDRVTITRDRSMSTAYMELSSLRSEDTAMYYCNAAYGSSSYPMDYWGQGTTVTVSS VL: NIQMTQSPSAMSASVGDRVTITCKASQDIHRYLSWFQQKPGKVPKHLIYRANRLVSGVPSRFSGSGSGTEFTLTISSLQPEDFATYYCLQYDEFPYTFGGGTKVEIKR	–	0.014 mg/L	–	0.38 µg/mL	0.13 µg/mL
Ab495/Ab356 (LC Ab495, HC Ab356) anti-CD47 antibody (antibody, V domains shown, Framework variant of AbParental) VH: QMQLVQSGAEVKKPGSSVKVSCKASGFNIKDYYLHWVRQAPGKGLEWMGWIDPDQGDTEYAQKFQGRVTITRDRSTSTAYMELRSLRAEDTAVYYCNAAYGSSSYPMDYWGQGTTVTVSS VL: NIQMTQSPSSLSASVGDRVTITCKASQDIHRYLSWYQQKPGKAPKHLIYRANRLVSGVPSRFSGSGSGTEFTLTISSLQPEDFATYYCLQYDEFPYTFGGGTKVEIK	–	0.035 mg/L	–	0.68 µg/mL	0.92 µg/mL
Ab356/Ab1127 (HC Ab356, LC Ab1127) anti-CD47 antibody (antibody, V domains shown, FR and CDR L2 variant of AbParental; The label order is HC/LC although the head says 'LC/HC'; r460 is used) VH: QMQLVQSGAEVKKPGSSVKVSCKASGFNIKDYYLHWVRQAPGKGLEWMGWIDPDQGDTEYAQKFQGRVTITRDRSTSTAYMELRSLRAEDTAVYYCNAAYGSSSYPMDYWGQGTTVTVSS VL: NIQMTQSPSSLSASVGDRVTITCRASQDIHRYLSWFQQKPGKVPKHLIYRESRFVDGVPSRFSGSGSGTEFTLTISSLQPEDFATYYCLQYDEFPYTFGGGTKVEIK	0.11	–	0.15	0.66 µg/mL	0.96 µg/mL
Ab356/Ab1121 (HC Ab356, LC Ab1121) anti-CD47 antibody (antibody, V domains shown, FR and CDR L2 variant of AbParental; The label order is HC/LC although the head says 'LC/HC'; the row in running number order (r442) is used) VH: QMQLVQSGAEVKKPGSSVKVSCKASGFNIKDYYLHWVRQAPGKGLEWMGWIDPDQGDTEYAQKFQGRVTITRDRSTSTAYMELRSLRAEDTAVYYCNAAYGSSSYPMDYWGQGTTVTVSS VL: NIQMTQSPSSLSASVGDRVTITCRASQDIHRYLSWFQQKPGKVPKHLIYRYIRFVDGVPSRFSGSGSGTEFTLTISSLQPEDFATYYCLQYDEFPYTFGGGTKVEIK	0.19	–	0.16	0.48 µg/mL	1.29 µg/mL
Ab480/Ab1121 (HC Ab480, LC Ab1121) anti-CD47 antibody (antibody, V domains shown, FR and CDR L2 variant of AbParental; The label order is HC/LC although the head says 'LC/HC'; r442 is used) VH: QMQLVQSGAEVKKPGSSVKVSCKASGFNIKDYYLHWVRQAPGKGLEWMGWIDPDQGDTEYAQKFQGRVTITRDRSTSTAYMELRSLRAEDTAVYYCNAAYGSSSYPMDYWGQGTLVTVSS VL: NIQMTQSPSSLSASVGDRVTITCRASQDIHRYLSWFQQKPGKVPKHLIYRYIRFVDGVPSRFSGSGSGTEFTLTISSLQPEDFATYYCLQYDEFPYTFGGGTKVEIK	0.17	–	0.17	0.43 µg/mL	1.42 µg/mL
Ab480/Ab1120 (HC Ab480, LC Ab1120) anti-CD47 antibody (antibody, V domains shown, FR and CDR L2 variant of AbParental) VH: QMQLVQSGAEVKKPGSSVKVSCKASGFNIKDYYLHWVRQAPGKGLEWMGWIDPDQGDTEYAQKFQGRVTITRDRSTSTAYMELRSLRAEDTAVYYCNAAYGSSSYPMDYWGQGTLVTVSS VL: NIQMTQSPSSLSASVGDRVTITCRASQDIHRYLSWFQQKPGKVPKHLIYRYVRFVDGVPSRFSGSGSGTEFTLTISSLQPEDFATYYCLQYDEFPYTFGGGTKVEIK	0.33	–	0.17	0.73 µg/mL	2.01 µg/mL
Ab482/Ab387 (LC Ab482, HC Ab387) anti-CD47 antibody (antibody, V domains shown, Framework variant of AbParental) VH: QMQLVQSGAEVKKPGSSVKVSCKASGFNIKDYYLHWVRQAPGKGLEWMGWIDPDQGDTEYAQKFQGRVTITRDRSTSTAYMELRSLRSEDTAVYYCNAAYGSSSYPMDYWGQGTLVTVSS VL: NIQMTQSPSSMSASVGDRVTITCKASQDIHRYLSWFQQKPGKVPKHLIYRANRLVSGVPSRFSGSGSGTEFTLTISSLQPEDFATYYCLQYDEFPYTFGGGTKVEIK	–	0.014 mg/L	–	0.15 µg/mL	0.17 µg/mL
Ab1119/Ab170 (LC Ab1119, HC Ab170) anti-CD47 antibody (antibody, V domains shown, Variant of AbParental) VH: QMQLVQSGAEVKKPGSSVKVSCKASGFNIKDYYLHWVRQAPGKGLEWMGWIDPDQGDTEYAQKFQGRVTITRDRSTSTAYMELRSLRSEDTAVYYCNAAYGSSSYPMDYWGQGTTVTVSS VL: NIQMTQSPSSLSASVGDRVTITCRASQDIHRYLSWFQQKPGKVPKHLIYRANRLVSGVPSRFSGSGSGTEFTLTISSLQPEDFATYYCLQYDEFPYTFGGGTKVEIK	–	0.015 mg/L	–	0.15 µg/mL	0.62 µg/mL
Ab1119/Ab356 (LC Ab1119, HC Ab356) anti-CD47 antibody (antibody, V domains shown, Variant of AbParental) VH: QMQLVQSGAEVKKPGSSVKVSCKASGFNIKDYYLHWVRQAPGKGLEWMGWIDPDQGDTEYAQKFQGRVTITRDRSTSTAYMELRSLRAEDTAVYYCNAAYGSSSYPMDYWGQGTTVTVSS VL: NIQMTQSPSSLSASVGDRVTITCRASQDIHRYLSWFQQKPGKVPKHLIYRANRLVSGVPSRFSGSGSGTEFTLTISSLQPEDFATYYCLQYDEFPYTFGGGTKVEIK	0.06	0.014 mg/L and 0.035 mg/L	0.16	0.36 µg/mL and 0.31 µg/mL and 0.14 µg/mL	–
Ab480/Ab1122 (HC Ab480, LC Ab1122) anti-CD47 antibody (antibody, V domains shown, FR and CDR L2 variant of AbParental; The label order is HC/LC although the head says 'LC/HC'; r445 is used) VH: QMQLVQSGAEVKKPGSSVKVSCKASGFNIKDYYLHWVRQAPGKGLEWMGWIDPDQGDTEYAQKFQGRVTITRDRSTSTAYMELRSLRAEDTAVYYCNAAYGSSSYPMDYWGQGTLVTVSS VL: NIQMTQSPSSLSASVGDRVTITCRASQDIHRYLSWFQQKPGKVPKHLIYRYERFVDGVPSRFSGSGSGTEFTLTISSLQPEDFATYYCLQYDEFPYTFGGGTKVEIK	0.16	–	0.17	1.1 µg/mL	1.84 µg/mL
Ab1119/Ab387 (LC Ab1119, HC Ab387) anti-CD47 antibody (antibody, V domains shown, Variant of AbParental) VH: QMQLVQSGAEVKKPGSSVKVSCKASGFNIKDYYLHWVRQAPGKGLEWMGWIDPDQGDTEYAQKFQGRVTITRDRSTSTAYMELRSLRSEDTAVYYCNAAYGSSSYPMDYWGQGTLVTVSS VL: NIQMTQSPSSLSASVGDRVTITCRASQDIHRYLSWFQQKPGKVPKHLIYRANRLVSGVPSRFSGSGSGTEFTLTISSLQPEDFATYYCLQYDEFPYTFGGGTKVEIK	–	0.011 mg/L and 0.014 mg/L	–	–	0.52 µg/mL and 0.21 µg/mL
Ab356/Ab1122 (HC Ab356, LC Ab1122) anti-CD47 antibody (antibody, V domains shown, FR and CDR L2 variant of AbParental; The label order is HC/LC although the head says 'LC/HC'; r445 is used) VH: QMQLVQSGAEVKKPGSSVKVSCKASGFNIKDYYLHWVRQAPGKGLEWMGWIDPDQGDTEYAQKFQGRVTITRDRSTSTAYMELRSLRAEDTAVYYCNAAYGSSSYPMDYWGQGTTVTVSS VL: NIQMTQSPSSLSASVGDRVTITCRASQDIHRYLSWFQQKPGKVPKHLIYRYERFVDGVPSRFSGSGSGTEFTLTISSLQPEDFATYYCLQYDEFPYTFGGGTKVEIK	0.17	–	0.22	1.07 µg/mL	1.83 µg/mL
Ab495/Ab480 (LC Ab495, HC Ab480) anti-CD47 antibody (antibody, V domains shown, Framework variant of AbParental) VH: QMQLVQSGAEVKKPGSSVKVSCKASGFNIKDYYLHWVRQAPGKGLEWMGWIDPDQGDTEYAQKFQGRVTITRDRSTSTAYMELRSLRAEDTAVYYCNAAYGSSSYPMDYWGQGTLVTVSS VL: NIQMTQSPSSLSASVGDRVTITCKASQDIHRYLSWYQQKPGKAPKHLIYRANRLVSGVPSRFSGSGSGTEFTLTISSLQPEDFATYYCLQYDEFPYTFGGGTKVEIK	–	0.066 mg/L	–	0.59 µg/mL	0.94 µg/mL
Ab356/Ab1120 (HC Ab356, LC Ab1120) anti-CD47 antibody (antibody, V domains shown, FR and CDR L2 variant of AbParental) VH: QMQLVQSGAEVKKPGSSVKVSCKASGFNIKDYYLHWVRQAPGKGLEWMGWIDPDQGDTEYAQKFQGRVTITRDRSTSTAYMELRSLRAEDTAVYYCNAAYGSSSYPMDYWGQGTTVTVSS VL: NIQMTQSPSSLSASVGDRVTITCRASQDIHRYLSWFQQKPGKVPKHLIYRYVRFVDGVPSRFSGSGSGTEFTLTISSLQPEDFATYYCLQYDEFPYTFGGGTKVEIK	0.17	–	0.16	0.68 µg/mL	1.82 µg/mL
Ab480/Ab1127 (HC Ab480, LC Ab1127) anti-CD47 antibody (antibody, V domains shown, FR and CDR L2 variant of AbParental; The label order is HC/LC although the head says 'LC/HC'; r460 is used) VH: QMQLVQSGAEVKKPGSSVKVSCKASGFNIKDYYLHWVRQAPGKGLEWMGWIDPDQGDTEYAQKFQGRVTITRDRSTSTAYMELRSLRAEDTAVYYCNAAYGSSSYPMDYWGQGTLVTVSS VL: NIQMTQSPSSLSASVGDRVTITCRASQDIHRYLSWFQQKPGKVPKHLIYRESRFVDGVPSRFSGSGSGTEFTLTISSLQPEDFATYYCLQYDEFPYTFGGGTKVEIK	0.08	–	0.2	1.88 µg/mL	1.95 µg/mL
